These results are taken from patent publication US10428140B2, “Anti-EphA4 antibody” (EISAI R&D MANAGEMENT CO., LTD., priority 2015, dated 2019).

Residue numbers refer to the chain shown, from its start.

T1: human EphA10 (Homo sapiens, UniProt Q5JZY3)
T1 construct: a protein of the extracellular region of each human Eph receptor fused with the SEAP protein and the His tag; made in house; host or cells: Expi293F cells (culture supernatant)
T1 sequence (Q5JZY3 34-565 limits assumed): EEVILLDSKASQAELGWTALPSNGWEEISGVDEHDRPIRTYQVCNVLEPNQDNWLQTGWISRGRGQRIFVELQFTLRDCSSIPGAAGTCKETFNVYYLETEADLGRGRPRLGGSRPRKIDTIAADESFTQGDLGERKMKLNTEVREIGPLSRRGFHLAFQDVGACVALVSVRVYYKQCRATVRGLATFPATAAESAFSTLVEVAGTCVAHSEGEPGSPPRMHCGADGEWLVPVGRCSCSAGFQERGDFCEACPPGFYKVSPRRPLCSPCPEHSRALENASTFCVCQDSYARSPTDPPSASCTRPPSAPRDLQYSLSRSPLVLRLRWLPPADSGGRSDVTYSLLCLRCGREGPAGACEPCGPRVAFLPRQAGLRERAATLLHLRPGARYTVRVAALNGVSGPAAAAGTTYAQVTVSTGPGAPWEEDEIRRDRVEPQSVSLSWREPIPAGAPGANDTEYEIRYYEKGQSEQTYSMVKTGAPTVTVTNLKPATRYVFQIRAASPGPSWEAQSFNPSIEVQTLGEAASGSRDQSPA

T2: human EphB4 (Homo sapiens, UniProt P54760)
T2 construct: a protein of the extracellular region of each human Eph receptor fused with the SEAP protein and the His tag; made in house; host or cells: Expi293F cells
T2 sequence (P54760 16-539 limits assumed): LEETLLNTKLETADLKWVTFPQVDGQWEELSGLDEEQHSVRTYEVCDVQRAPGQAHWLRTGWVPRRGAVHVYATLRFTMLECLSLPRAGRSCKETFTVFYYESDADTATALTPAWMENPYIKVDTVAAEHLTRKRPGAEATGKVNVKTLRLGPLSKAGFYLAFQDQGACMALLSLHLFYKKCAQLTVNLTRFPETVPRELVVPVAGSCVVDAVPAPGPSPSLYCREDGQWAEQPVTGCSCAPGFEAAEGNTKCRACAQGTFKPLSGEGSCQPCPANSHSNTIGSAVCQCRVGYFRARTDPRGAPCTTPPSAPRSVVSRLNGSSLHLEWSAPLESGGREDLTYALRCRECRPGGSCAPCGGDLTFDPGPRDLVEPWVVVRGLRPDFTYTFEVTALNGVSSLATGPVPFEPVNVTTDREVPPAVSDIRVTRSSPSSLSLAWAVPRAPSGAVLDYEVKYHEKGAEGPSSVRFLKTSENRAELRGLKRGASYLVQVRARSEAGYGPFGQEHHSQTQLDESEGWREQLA

T3: human EphB6 (Homo sapiens, UniProt O15197)
T3 construct: a protein of the extracellular region of each human Eph receptor fused with the SEAP protein and the His tag; made in house; host or cells: Expi293F cells
T3 sequence (O15197 32-594 limits assumed): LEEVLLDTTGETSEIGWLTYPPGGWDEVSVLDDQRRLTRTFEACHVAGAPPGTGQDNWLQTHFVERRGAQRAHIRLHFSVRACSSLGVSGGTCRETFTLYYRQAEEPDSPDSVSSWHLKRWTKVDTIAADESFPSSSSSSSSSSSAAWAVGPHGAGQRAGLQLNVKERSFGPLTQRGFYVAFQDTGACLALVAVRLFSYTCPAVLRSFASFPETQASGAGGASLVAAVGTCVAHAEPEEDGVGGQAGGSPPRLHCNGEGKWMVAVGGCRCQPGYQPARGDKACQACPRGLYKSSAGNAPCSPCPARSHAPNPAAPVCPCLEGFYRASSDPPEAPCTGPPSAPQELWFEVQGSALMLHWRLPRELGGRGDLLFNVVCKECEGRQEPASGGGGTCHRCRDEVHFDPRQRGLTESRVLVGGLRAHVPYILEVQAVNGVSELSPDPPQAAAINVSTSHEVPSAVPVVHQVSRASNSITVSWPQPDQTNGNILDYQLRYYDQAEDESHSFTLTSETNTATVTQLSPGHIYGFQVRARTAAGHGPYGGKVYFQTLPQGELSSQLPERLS

B1: 88 (antibody, V domains shown)
VL: DIQMTQSPSSLSASVGDRVTITCRASENIYRNLAWYQQKPGKAPQLLLYAATNLADGVPSRFSGSGSGTDYTLTISSLQPEDFATYYCQHFWGTPWTFGQGTKVEIK
VH: QVQLVQSGSELKKPGASVKVSCKASGYTFTDYSMHWVRQAPGQGLKWMGWINTETGEPTYAQGFTGRFVFSLDTSVSTAYLQISSLKAEDTAVYYCARIPLYYYGSRYWYFDVWGQGTTVTVSS
modifications: constant regions without entry; synthetic humanized antibody light chain variable region sequence; synthetic humanized antibody heavy chain variable region sequence
B2: 91 (antibody, V domains shown)
VL: B1 VL
VH: B1 VH with Q62D, G63D, T65K
modifications: constant regions without entry; synthetic humanized antibody light chain variable region sequence; synthetic humanized antibody heavy chain variable region sequence
B3: 94 (antibody, V domains shown)
VL: EIVMTQSPATLSVSPGERATLSCRASENIYRNLAWYQQKPGQSPRLLIYAATNLADGIPARFSGSGSGTEYTLTISSLQSEDFAVYYCQHFWGTPWTFGQGTKVEIK
VH: B1 VH
modifications: constant regions without entry; synthetic humanized antibody light chain variable region sequence; synthetic humanized antibody heavy chain variable region sequence
B4: 90 (antibody, V domains shown)
VL: B1 VL
VH: B1 VH with K46E, Q62D, G63D, T65K
modifications: constant regions without entry; synthetic humanized antibody light chain variable region sequence; synthetic humanized antibody heavy chain variable region sequence
B5: 92 (antibody, V domains shown)
VL: B1 VL
VH: B1 VH with V2I, Q62D, G63D, T65K
modifications: constant regions without entry; synthetic humanized antibody light chain variable region sequence; synthetic humanized antibody heavy chain variable region sequence
B6: 89 (antibody, V domains shown)
VL: B1 VL
VH: B1 VH with V2I
modifications: constant regions without entry; synthetic humanized antibody light chain variable region sequence; synthetic humanized antibody heavy chain variable region sequence
B7: 93 (antibody, V domains shown)
VL: B3 VL
VH: B1 VH with K46E
modifications: constant regions without entry; synthetic humanized antibody light chain variable region sequence; synthetic humanized antibody heavy chain variable region sequence
B8: 95 (antibody, V domains shown)
VL: B3 VL
VH: B1 VH with K46E, Q62D, G63D, T65K
modifications: constant regions without entry; synthetic humanized antibody light chain variable region sequence; synthetic humanized antibody heavy chain variable region sequence
B9: 96 (antibody, V domains shown)
VL: B3 VL
VH: B1 VH with Q62D, G63D, T65K
modifications: constant regions without entry; synthetic humanized antibody light chain variable region sequence; synthetic humanized antibody heavy chain variable region sequence
B10: 71 (antibody, V domains shown)
VH: B1 VH with V2I
VL: B3 VL
modifications: synthetic humanized antibody heavy chain variable region sequence; synthetic humanized antibody light chain variable region sequence

The first assay has as its target T1, human EphA10. The experiment in a line: Selectivity ELISA of humanized antibodies for human Eph receptor. It is filed as binding. The settings on record: coated protein 1 nM. Summed up:
(§1)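 Read-out is A450 after TMB development stopped with 1N H2SO4. Plates bore anti-His-captured human Eph extracellular region-SEAP-His proteins at 1 nM final, made in Expi293F cells. Humanized antibody binding ran 1 h at room temperature before HRP-labeled anti-IgG detection.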
As for B1, the “hEphA10-SEAP-: absorbance at 450 nm, percentage with respect to hEphA4-SEAP-His as 100%” value was 5.8%.

As to B2, the “hEphA10-SEAP-: absorbance at 450 nm, percentage with respect to hEphA4-SEAP-His as 100%” value amounted to 8.5%.

B3: the “hEphA10-SEAP-: absorbance at 450 nm, percentage with respect to hEphA4-SEAP-His as 100%” value is given as 6.4%.

Take B4: the “hEphA10-SEAP-: absorbance at 450 nm, percentage with respect to hEphA4-SEAP-His as 100%” value stood at 5.1%.

With B5, the “hEphA10-SEAP-: absorbance at 450 nm, percentage with respect to hEphA4-SEAP-His as 100%” value is listed as 6.6%.

On to B6, for which the “hEphA10-SEAP-: absorbance at 450 nm, percentage with respect to hEphA4-SEAP-His as 100%” value is 5.7%.

Regarding B7, the “hEphA10-SEAP-: absorbance at 450 nm, percentage with respect to hEphA4-SEAP-His as 100%” value was found to be 4.9%.

Consider B8, for which the “hEphA10-SEAP-: absorbance at 450 nm, percentage with respect to hEphA4-SEAP-His as 100%” value was determined as 4.5%.

Consider B9, for which the “hEphA10-SEAP-: absorbance at 450 nm, percentage with respect to hEphA4-SEAP-His as 100%” value stood at 5.3%.

For B10, the “hEphA10-SEAP-: absorbance at 450 nm, percentage with respect to hEphA4-SEAP-His as 100%” value is reported as 5.3%.

For a further assay, the target named is T2, human EphB4. The description is as above. The settings on record: coated protein 1 nM. It is filed as binding. Summed up: as §1
For the molecule B1, the “hEphB4-SEAP-: absorbance at 450 nm, percentage with respect to hEphA4-SEAP-His as 100%” value was determined as 6.1%.

For B2, the “hEphB4-SEAP-: absorbance at 450 nm, percentage with respect to hEphA4-SEAP-His as 100%” value is listed as 6.2%.

In the case of B3, the “hEphB4-SEAP-: absorbance at 450 nm, percentage with respect to hEphA4-SEAP-His as 100%” value is 6.5%.

For the molecule B4, the “hEphB4-SEAP-: absorbance at 450 nm, percentage with respect to hEphA4-SEAP-His as 100%” value came out at 5.0%.

Turning to B5, the “hEphB4-SEAP-: absorbance at 450 nm, percentage with respect to hEphA4-SEAP-His as 100%” value was 6.6%.

As for B6, the “hEphB4-SEAP-: absorbance at 450 nm, percentage with respect to hEphA4-SEAP-His as 100%” value turned out to be 5.8%.

For the molecule B7, the “hEphB4-SEAP-: absorbance at 450 nm, percentage with respect to hEphA4-SEAP-His as 100%” value turned out to be 5.0%.

Consider B8, for which the “hEphB4-SEAP-: absorbance at 450 nm, percentage with respect to hEphA4-SEAP-His as 100%” value stood at 4.6%.

In the case of B9, the “hEphB4-SEAP-: absorbance at 450 nm, percentage with respect to hEphA4-SEAP-His as 100%” value is given as 5.5%.

B10: the “hEphB4-SEAP-: absorbance at 450 nm, percentage with respect to hEphA4-SEAP-His as 100%” value is listed as 5.5%.

Another assay concerns the target T3, human EphB6. The assay is described as above. It counts as binding. The settings on record: coated protein 1 nM. In a few lines: as §1
With B1, the “hEphB6-SEAP-: absorbance at 450 nm, percentage with respect to hEphA4-SEAP-His as 100%” value was 6.1%.

On to B2, for which the “hEphB6-SEAP-: absorbance at 450 nm, percentage with respect to hEphA4-SEAP-His as 100%” value is recorded as 6.3%.

On to B3, for which the “hEphB6-SEAP-: absorbance at 450 nm, percentage with respect to hEphA4-SEAP-His as 100%” value is recorded as 6.4%.

As to B4, the “hEphB6-SEAP-: absorbance at 450 nm, percentage with respect to hEphA4-SEAP-His as 100%” value is given as 5.2%.

Turning to B5, the “hEphB6-SEAP-: absorbance at 450 nm, percentage with respect to hEphA4-SEAP-His as 100%” value came out at 6.5%.

B6: the “hEphB6-SEAP-: absorbance at 450 nm, percentage with respect to hEphA4-SEAP-His as 100%” value worked out at 4.8%.

With B7, the “hEphB6-SEAP-: absorbance at 450 nm, percentage with respect to hEphA4-SEAP-His as 100%” value is 4.9%.

On to B8, for which the “hEphB6-SEAP-: absorbance at 450 nm, percentage with respect to hEphA4-SEAP-His as 100%” value turned out to be 4.7%.

With B9, the “hEphB6-SEAP-: absorbance at 450 nm, percentage with respect to hEphA4-SEAP-His as 100%” value amounted to 5.5%.

With B10, the “hEphB6-SEAP-: absorbance at 450 nm, percentage with respect to hEphA4-SEAP-His as 100%” value is listed as 5.3%.
